Experimental data published in article doi:10.1101/2020.10.16.343392 (bioRxiv, 2020).

Molecular target: the molecule itself
Assay: crystal structure

B1: EfgA (enhanced formaldehyde growth protein A) from Methylorubrum extorquens PA1 (natural protein)
chain: MHVTIEQAEKAIQAARAKAVELGTQMCIAIVDSGGNLKAFHRMDGAWVGSIDIAQKKAKTAVFFGMKTGQIGALSQPGGSLYGIEHSNQGLITFPGGIPIVDADGEMSGAIGVSGSSVENDDAVALAGASAIGDTELPDHPWRT
  stoichiometry N: 4
